We go through seven molecules from patent US20250236644A1 (published 2025).

What is called Kd is the equilibrium constant for the complex coming apart. Low readings indicate a tighter complex, high ones a looser complex.

Like-named read-outs stand apart in the source and are kept apart here. Ends that are not written are not given here.

Assay [1] has as its target T1, TAMRA-labeled effector peptide cs074B (5(6)-TAMRA label coupled on resin after synthesis).
T1 peptide: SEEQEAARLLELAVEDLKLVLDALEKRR
Briefly: fluorescence polarization. For orientation: Polarisation of emitted light reports the rotation of a fluorescent probe.

In assay [2] the target is cs221-V111L-A114T DEER site pair 1. Briefly: fluorescence polarization; MTSL-labeled, site pair 1.
In assay [3] the target is T2, TAMRA-labeled effector peptide js007B (5(6)-TAMRA label coupled on resin after synthesis).
T2 peptide: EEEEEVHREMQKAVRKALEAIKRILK
Briefly: fluorescence polarization.

Assay [4] concerns the target T1, TAMRA-labeled effector peptide cs074B. The assay is described as follows: fluorescence polarization.
Assay [5] deals with T3, TAMRA-labeled effector peptide cs201B (5(6)-TAMRA label coupled on resin after synthesis).
T3 peptide: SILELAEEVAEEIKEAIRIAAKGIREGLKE
The assay is described as follows: fluorescence polarization.

In assay [6] the target is T4, TAMRA-labeled effector peptide cs221B (5(6)-TAMRA label coupled on resin after synthesis).
T4 peptide: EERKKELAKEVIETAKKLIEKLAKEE
The assay is described as follows: fluorescence polarization.

Assay [7] concerns the target T4, TAMRA-labeled effector peptide cs221B. The assay is described as follows: fluorescence polarization.

B1: hinge cs074 (designed binder)
chain: MSGDEEVQEAVERAEELREEAEELIKKARKTGDPELLRKALEALKEAVRAVKEAIKRNPDNEEAVKTAVRLARELLKVAEELKERAEKTGDPRLLLLAAEAIAWAIEAVFLAAKASENTEGALEAARAAVKLAEVAKRIAKLLQRDAKKEGDPELLKLALRALELAVRAVELAIKENPDNEEAVETAKRLAEELRKVAELLEERAKETGDPELQELAKRAKEVADRARELAKKSNPNNGSGSHHWGSTHHHHHH
In the case of B1, the Kd in assay [1] is 1 nM.

{5(6)‑TAMRA}-EERKKELAKEVIETAKKLIEKLAKEE [TAMRA-labeled peptide cs221B] came in with a Kd in assay [2] of 0.4 nM.

B2: hinge js007 (designed binder)
chain: MSGSEEVNERVKQLAEKAKEATDKEEVIEIVKELAELAKQSTDPNLVAEVVRALTEVAKTSTDTELIQEIVKVLLELARRLTDPQLLLEVLKSIAELLKELAEKTGNETAKLAALVAQIAAEVVEMALRAEKTHPGSEIVKLAVELVQKVAEIVLIAAQLMLDKPNSDEVRKVLKEVEKVAREALKALREAKRHPDSQKARDEIKEASQKAEEVKERIERAQEGSGSHHWGSTHHHHHH
Consider B2, for which the dissociation constant Kd in assay [3] is 6 nM.

B3: swapped target hinge csw20 (designed binder)
chain: MSGMEEVKELVEKAEELAKEAEELIKKAKKTGNPELLKEALRKLKEAVELAKEAVELDPEHEEAIELLARLAEKLLEVAKLLIELAKKTGNPELLKEALRALKEAREALRLAAEHAPEDAKLLARLAARLAELALLIAKILIELAKKTGNPELLLKALKVLTLAVEAVEAALEADPRLKEAVRVAKELAEVLKELAKLAKELAKKTGNEELKEAAKEAEEVAKRAEELAREAEGSGSHHWGSTHHHHHH
Consider B3, for which the figures for the Kd in assay [4], in assay [5] and in assay [6] were below 1 nM, 12 nM and 1500 nM, respectively.

B4: hinge cs201 (designed binder)
chain: MSGDEEVQEAVERAEELREEAEELIKKARKTGDPELLRKALEALKEAVRAVREAIKRNPDNEEAIKTALRLARELRKVAKELIERARKTGDAELLKKALEAARVAVEAVRLAAEYNKENAEKMAELLVELAELAREVADVLIELAEKTGDPELLKKALEVLEEAVEAVRLAIEYDPDHEEAVETAKRLAEELRKVAELLEERAKETGDPELQELAKRAKEVADRARELAKKSNGSGSHHWGSTHHHHHH
Regarding B4, the Kd in assay [5] was 17 nM; in assay [6] it was 4370 nM.

B5: hinge cs221 (designed binder)
chain: MSGEMKEEIRRLAEELRERTKDEEVRELAREAARLAEESDDEEVKEVVKKALEAALKSKDEEVIRLLLLAAVLAAAAARSGSPEEKLEIAKKALELAMKSKDEEVIRLALLAAVLAARSDDEEVLKKVKEALEKAMESKDVEEIRERLREAVEVARAGSGSHHWGSTHHHHHH
On to B5, for which, in assay [7], the Kd was determined as 1.5 nM.

B6: swapped target hinge csw13 (designed binder)
chain: MSGNEEVKKLVEEAKKYLKEAEEYIKKAKKTGNEELLEKALKLLEKALELVKKAIELDPNNKEAIEQAVEIARALNEVAELLIEEAKKTGNEELLEKALEALEAANEALKLAIENNENDKELLAEIAVELAEVGVLLAEVLIEEAKKTGDPELLKLALEVLEAAVEALELALKLDPNNEEAVELAEEAAKLLEEVAKELKEEAKKTGDPELEKLAKEAEELAKRAKELAERQRGSGSHHWGSTHHHHHH
The molecule B6 gave a Kd in assay [6] below 1 nM.
